Reference: patent US20120021993A1 (AJOU UNIVERSITY INDUSTRY ACADEMIC COOPERATION FOUNDATION, published 2012)
Changes are numbered by the printed parent chain. Each block holds one binder with its values, some of them ahead of it.

Legend:
[1] = target: T1, human-derived cell death receptor 4, extracellular domain (amino acid residues 1-216), 6xHis tag (human, UniProt O00220 24-239); experiment: ELISA, homo-dimer against monomer
T1 construct: extracellular domain; Expressed in E. coli; biotinylated for sorting and flow cytometry; residues 1-216; also called DR4; TRAIL-receptor 1

[2] = target: T1, human-derived cell death receptor 4, …; experiment: ELISA, target coated on the plate
cell surface DR4 = cell surface DR4 (human, UniProt O00220 24-468); experiment: cell-based or functional assay
[3] = target: T1, human-derived cell death receptor 4, …; experiment: affinity ELISA, target coated on the plate
Experimental: (§1) In order to measure the affinity and cross reactivity of the anti-DR4, -DR5 and -TNFα protein scaffold variants based on the Kringle domain structure to the target molecules, an enzyme-linked immunosorbent assay (ELISA) was performed. The target molecules DR4, DR5, TNFα and DcR1, DcR2 were attached to a 96 well EIA/RIA plate (COSTARCorning In., USA) by its reaction at 37° C. for 1 hour, and washed three times with 0.1% PBST (0.1% Tween20, pH 7.4, 137 mM NaCl, 10 mM Phosphate, 2.7 mM KCl, SIGMA-ALDRICH Co., USA) for 10 minutes. The target molecules were attached for 1 hour to a 96 well EIA/RIA plate in 1% PBSB (1% BSA, pH 7.4, 137 mM NaCl, 10 mM Phosphate, 2.7 mM KCl, SIGMA-ALDRICH Co., USA), and then washed three times with 0.1% PBST (0.1% Tween 20, pH 7.4, 137 mM NaCl, 10 mM Phosphate, 2.7 mM KCl, SIGMA-ALDRICH Co., USA) for 10 minutes. Then, the anti-DR4, -DR5 and -TNFα Kringle domain variants were bound, and washed three times with 0.1% PBST for 10 minutes. The anti-DR4, -DR5 and -TNFα Kringle domain variants were primarily bound to mouse-derived anti-c-myc 9e10 mAb (Ig Therapy, Korea), and secondarily bound to alkaline phosphatase (AP)-conjugated anti-mouse mAb (Sigma). Each of the Kringle domain variants was reacted with […] (pNPP, Sigma-aldrich Co., USA) and quantified at an absorbance of 405 nm.
(§2) In order to analyze the affinities of the Fc-fused anti-DR4, -DR5 and -TNFα Kringle domains to target molecules, the affinities of the Fc-fused anti-DR4, -DR5 and -TNFα Kringle domains to the target molecules were analyzed using ELISA, as described in Example 8.

DcR1 [4] = target: T2, DcR1 (UniProt O14798 26-221, limits assumed); experiment: yeast display, flow cytometry MFI [panel KD413]
T2 sequence (looked up): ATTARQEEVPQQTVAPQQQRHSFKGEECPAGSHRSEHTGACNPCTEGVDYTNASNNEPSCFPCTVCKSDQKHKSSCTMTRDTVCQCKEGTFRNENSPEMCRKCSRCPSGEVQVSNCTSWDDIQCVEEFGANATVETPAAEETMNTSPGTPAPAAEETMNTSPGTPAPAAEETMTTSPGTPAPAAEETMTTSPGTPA

DcR2 [5] = target: T3, DcR2 (UniProt Q9UBN6 56-211, limits assumed); experiment: yeast display, flow cytometry MFI [panel KD413]
T3 sequence (looked up): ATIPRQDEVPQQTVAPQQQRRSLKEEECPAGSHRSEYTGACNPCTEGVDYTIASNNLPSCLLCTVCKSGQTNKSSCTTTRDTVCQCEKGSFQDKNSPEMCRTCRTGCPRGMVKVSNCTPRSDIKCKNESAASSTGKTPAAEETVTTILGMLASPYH

DcR1 [6] = target: T2, DcR1; experiment: yeast display, flow cytometry MFI [panel KD548]
DcR2 [7] = target: T3, DcR2; experiment: yeast display, flow cytometry MFI [panel KD548]
cell surface DR5 = cell surface DR5 (human, UniProt O14763 56-440); experiment: cell-based or functional assay
[8] = target: T4, human-derived cell death receptor 5, extracellular domain (amino acid residues 1-130), 6xHis tag (human, UniProt O14763 56-210); experiment: affinity ELISA, target coated on the plate
T4 construct: extracellular domain; Expressed in E. coli; biotinylated for sorting and flow cytometry; also called DR5; TRAIL-receptor 2
Experimental: as §1, §2

[9] = target: T1, human-derived cell death receptor 4, …; experiment: ELISA, coated target, A405
[10] = target: T5, TNFα, extracellular domain (amino acid residue 1-157), 6xHis tag (human, UniProt P01375 57-233); experiment: ELISA, coated target, A405
T5 construct: extracellular domain; Expressed in E. coli; The printed residues 1-157 seem to count on the soluble form, not on the precursor; also called human TNFα; tumor necrosis factor alpha
Experimental: as §1

[11] = target: T1, human-derived cell death receptor 4, …; experiment: ELISA, coated target, single binder concentration not given, A405
Experimental: as §1

[12] = target: T4, human-derived cell death receptor 5, …; experiment: ELISA, homo-dimer against monomer
[13] = target: T4, human-derived cell death receptor 5, …; experiment: ELISA, target coated on the plate

T5 sequence (P01375 other isoform, or with tags, fused parts or gaps limits assumed): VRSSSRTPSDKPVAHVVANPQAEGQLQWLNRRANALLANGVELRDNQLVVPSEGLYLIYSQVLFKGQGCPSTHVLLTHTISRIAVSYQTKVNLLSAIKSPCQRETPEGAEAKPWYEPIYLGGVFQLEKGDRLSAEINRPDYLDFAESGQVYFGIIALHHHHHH

B1: anti-DR4 KD415 homo-dimer (designed binder)
chain: CTRSKGDEYDGHKHKTNRGLRCQHWPGTKPHFHGDKIKDRHGFRLKKNYCRNPDPQDQPWCFTNRHQHKNELCNQPRCGGGGSGGGGSGGGGSGGGGSCTRSKGDEYDGHKHKTNRGLRCQHWPGTKPHFHGDKIKDRHGFRLKKNYCRNPDPQDQPWCFTNRHQHKNELCNQPRC
- fold increase of affinity against the monomer [1]: ~10 fold
- affinity value [2]: 87 nM

B2: KD413-Fc (Fc fusion)
chain: CAKAEGTGYDGHEHKTHKGIRCQNWYKSKPHYHGHQFRDGDKIKNKKNYCRNPDPRAGPWCFTHGNRNRYELCNQPRC
notes: Disulfide-linked dimer from Pichia pastoris; also called Fc-fused anti-DR4 Kringle domain KD413; not shown: Fc domain region from a hinge of human immunoglobulin G1
- EC50 (a concentration of protein causing a 50% cell death), Jurkat, MTT assay (cell surface DR4): 60 nM
- affinity [3]: 60 nM

- binding result (DcR1 [4]): no binding
- binding result (DcR2 [5]): no binding
B3: KD413L56 (designed binder)
chain: CMHCSGENYDGKISKTMSGLECQAWDSQSPHAHGYIPSKFPNKNLKKNYCRNPDPRAGPWCFTHGNRNRYELCDIPRC

- binding result (DcR1 [4]): no binding
- binding result (DcR2 [5]): no binding
B4: L5 (KD413) (designed binder)
chain: B3 chain with H64T, G65D, N66P, R67N, N68K, Y70W
notes: also called KD413L5

- binding result (DcR1 [6]): no binding
- binding result (DcR2 [7]): no binding
B5: L567 (KD548) (designed binder)
chain: CMHCSGENYDGKISKTMSGLECQAWDSQSPHAHGYIPSKFPNKNLKKNYCRNPDNKHEPWCFTHGHRDKHELCHEPRC
notes: also called KD548L567; not shown: Aga2p display anchor, linker and c-myc tag of the pCTCON yeast display vector

- binding result (DcR1 [6]): no binding
- binding result (DcR2 [7]): no binding
B6: KD548L56 (designed binder)
chain: B5 chain with H74D, E75I

- binding result (DcR1 [4]): no binding
- binding result (DcR2 [5]): no binding
B7: L567 (KD413) (designed binder)
chain: B3 chain with D74N, I75Q
notes: also called KD413L567

B8: KD506-Fc (Fc fusion)
chain: CPEDRGHEYDGDGDKTNRGHGCQYWDQNKPHHHGHRDKDKFKHRIKKNYCRNPDYETGPWCFTNRYRNKNELCHEPRC
notes: Disulfide-linked dimer from Pichia pastoris; also called Fc-fused anti-DR5 Kringle domain KD506; not shown: Fc domain region from a hinge of human immunoglobulin G1
- EC50 (a concentration of protein causing a 50% cell death), HL60, MTT assay (cell surface DR5): 230 nM
- EC50 (a concentration of protein causing a 50% cell death), Jurkat, MTT assay (cell surface DR5): 80 nM
- affinity [8]: 43 nM

B9: KD413-KD415 hetero-dimer (designed binder, not shown: small tags and cut ends)
chain: CAKAEGTGYDGHEHKTHKGIRCQNWYKSKPHYHGHQFRDGDKIKNKKNYCRNPDPRAGPWCFTHGNRNRYELCNQPRCGGGGSGGGGSGGGGSGGGGSCTRSKGDEYDGHKHKTNRGLRCQHWPGTKPHFHGDKIKDRHGFRLKKNYCRNPDPQDQPWCFTNRHQHKNELCNQPRC
- EC50 (read off the curve) [9]: ~30 nM

B10: KDT01 (designed binder)
chain: CYEDKGPQYDGDEYGTHKGHRCQNWDENRPHPHGIGHQHKHQVKDGKNYCRNPDDETEPWCFTHKDKYGHELCNRPRC
notes: Soluble monomer from Pichia pastoris; also called KRT01; not shown: C-terminal myc tag-6xHis tag of pPICZaA
- EC50 (read off the curve) [10]: ~2000 nM
- binding result [11]: no binding

B11: KD548-Fc (Fc fusion)
chain: CHQTQGPKYDGNKDKTHKGHKCQSWTKNRPHHHGNKIENEDENRFQKNYCRNPDNKHEPWCFTHGHRDKHELCHEPRC
notes: Disulfide-linked dimer from Pichia pastoris; also called Fc-fused anti-DR5 Kringle domain KD548; not shown: Fc domain region from a hinge of human immunoglobulin G1
- EC50 (a concentration of protein causing a 50% cell death), HL60, MTT assay (cell surface DR5): 220 nM
- affinity [8]: 58 nM

- binding result (DcR1 [6]): no binding
- binding result (DcR2 [7]): no binding
B12: L1234 (KD548) (designed binder)
chain: CHQTQGPKYDGNKDKTHKGHKCQSWTKNRPHHHGNKIENEDENRFQKNYCRNPDRELRPWCFTTDPNKRWELCDIPRC
notes: also called KD548L1234

- binding result (DcR1 [4]): no binding
- binding result (DcR2 [5]): no binding
B13: L1234 (KD413) (designed binder)
chain: CAKAEGTGYDGHEHKTHKGIRCQNWYKSKPHYHGHQFRDGDKIKNKKNYCRNPDRELRPWCFTTDPNKRWELCDIPRC
notes: also called KD413L1234

B14: anti-DR5 KD548 homo-dimer (designed binder)
chain: CHQTQGPKYDGNKDKTHKGHKCQSWTKNRPHHHGNKIENEDENRFQKNYCRNPDNKHEPWCFTHGHRDKHELCHEPRCGGGGSGGGGSGGGGSGGGGSCHQTQGPKYDGNKDKTHKGHKCQSWTKNRPHHHGNKIENEDENRFQKNYCRNPDNKHEPWCFTHGHRDKHELCHEPRC
- fold increase of affinity against the monomer [12]: ~10 fold
- affinity value [13]: 53 nM

B15: KDT02 (designed binder)
chain: CAQDGGPGYDGDKHGTHGGHECQDWTKDGPHIHGFRDQFRDEDQHGKNYCRNPDSQHGPWCFTNEDEHRNELCHEPRC
notes: Soluble monomer from Pichia pastoris; also called KRT02; not shown: C-terminal myc tag-6xHis tag of pPICZaA
- EC50 (read off the curve) [10]: ~2000 nM
- binding result [11]: no binding

B16: anti-DR5 KD506 homo-dimer (designed binder)
chain: CPEDRGHEYDGDGDKTNRGHGCQYWDQNKPHHHGHRDKDKFKHRIKKNYCRNPDYETGPWCFTNRYRNKNELCHEPRCGGGGSGGGGSGGGGSGGGGSCPEDRGHEYDGDGDKTNRGHGCQYWDQNKPHHHGHRDKDKFKHRIKKNYCRNPDYETGPWCFTNRYRNKNELCHEPRC
- fold increase of affinity against the monomer [12]: ~10 fold
- affinity value [13]: 31 nM

B17: anti-DR4 KD413 homo-dimer (designed binder)
chain: CAKAEGTGYDGHEHKTHKGIRCQNWYKSKPHYHGHQFRDGDKIKNKKNYCRNPDPRAGPWCFTHGNRNRYELCNQPRCGGGGSGGGGSGGGGSGGGGSCAKAEGTGYDGHEHKTHKGIRCQNWYKSKPHYHGHQFRDGDKIKNKKNYCRNPDPRAGPWCFTHGNRNRYELCNQPRC
- fold increase of affinity against the monomer [1]: ~10 fold
- affinity value [2]: 43 nM

B18: KD415-Fc (Fc fusion)
chain: CTRSKGDEYDGHKHKTNRGLRCQHWPGTKPHFHGDKIKDRHGFRLKKNYCRNPDPQDQPWCFTNRHQHKNELCNQPRC
notes: Disulfide-linked dimer from Pichia pastoris; also called Fc-fused anti-DR4 Kringle domain KD415; not shown: Fc domain region from a hinge of human immunoglobulin G1
- EC50 (a concentration of protein causing a 50% cell death), HL60, MTT assay (cell surface DR4): 60 nM
- EC50 (a concentration of protein causing a 50% cell death), Jurkat, MTT assay (cell surface DR4): 80 nM
- affinity [3]: 53 nM
